In US20080044360A1 (COLLAGEN MEDICAL, published 2008):
Bridge positions count the residues as written; N and C are the ends. Square brackets hold non-standard residues; d marks the D form. Primed or numbered codes have the meaning given here. Side chains are listed from the residue outwards. Ends that are not written are not given here. * marks the point of attachment. Tyr(3-Cl) = N[C@@H](Cc1ccc(O)c(Cl)c1)C(=O)O; Tyr(3-I) = N[C@@H](Cc1ccc(O)c(I)c1)C(=O)O; Phe(3-OMe) = COc1cccc(C[C@H](N)C(=O)O)c1; Phe(4-NH2) = Nc1ccc(C[C@H](N)C(=O)O)cc1; Phe(4-F) = N[C@@H](Cc1ccc(F)cc1)C(=O)O; Dmt = Cc1cc(O)cc(C)c1C[C@H](N)C(=O)O; hTyr = N[C@@H](CCc1ccc(O)cc1)C(=O)O; NMeA = CN[C@@H](C)C(=O)O; Gd^T″ = GdDTPA-thiourea; Cbz = O=C(OCc1ccccc1)*

Experiments:
[1] = target: T1, human collagen type I, acid soluble, extracted from placenta (Sigma C7774) (human, UniProt P02452 162-1218; P08123 80-1119); test: dried collagen assay
T1 construct: tissue extract, gelled and dried in wells; also called dried human collagen; h-Collagen
T1 sequence (P02452 162-1218 limits assumed, chain 1 of 2): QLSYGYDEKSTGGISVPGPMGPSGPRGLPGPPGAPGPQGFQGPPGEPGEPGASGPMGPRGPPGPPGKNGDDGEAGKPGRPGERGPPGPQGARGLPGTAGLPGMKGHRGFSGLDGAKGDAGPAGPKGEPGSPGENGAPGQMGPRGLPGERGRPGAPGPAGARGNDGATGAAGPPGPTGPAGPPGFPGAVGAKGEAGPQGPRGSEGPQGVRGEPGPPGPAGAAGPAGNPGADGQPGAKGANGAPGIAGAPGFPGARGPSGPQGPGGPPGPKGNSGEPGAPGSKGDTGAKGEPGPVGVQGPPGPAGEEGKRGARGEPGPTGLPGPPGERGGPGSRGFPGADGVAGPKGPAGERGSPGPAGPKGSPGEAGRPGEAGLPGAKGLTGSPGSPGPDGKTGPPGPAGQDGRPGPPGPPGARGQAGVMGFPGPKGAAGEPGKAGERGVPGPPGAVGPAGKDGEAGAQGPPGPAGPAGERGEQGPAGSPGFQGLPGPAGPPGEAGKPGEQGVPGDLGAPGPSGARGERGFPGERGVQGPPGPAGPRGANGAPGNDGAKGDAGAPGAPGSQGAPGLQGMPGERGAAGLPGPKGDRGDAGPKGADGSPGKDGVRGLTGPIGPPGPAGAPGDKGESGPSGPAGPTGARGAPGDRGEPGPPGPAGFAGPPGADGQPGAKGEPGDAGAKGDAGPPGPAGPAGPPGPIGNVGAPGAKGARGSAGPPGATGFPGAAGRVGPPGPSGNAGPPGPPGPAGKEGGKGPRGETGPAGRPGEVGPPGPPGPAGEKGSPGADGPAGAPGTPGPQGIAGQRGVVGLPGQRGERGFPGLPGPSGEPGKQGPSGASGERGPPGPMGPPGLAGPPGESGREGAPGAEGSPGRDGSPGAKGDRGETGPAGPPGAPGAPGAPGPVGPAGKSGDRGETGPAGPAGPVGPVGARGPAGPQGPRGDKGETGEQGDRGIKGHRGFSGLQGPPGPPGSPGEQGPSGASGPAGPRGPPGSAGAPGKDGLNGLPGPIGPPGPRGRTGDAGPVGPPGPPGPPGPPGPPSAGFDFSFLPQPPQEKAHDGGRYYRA
T1 sequence (P08123 80-1119 limits assumed, chain 2 of 2): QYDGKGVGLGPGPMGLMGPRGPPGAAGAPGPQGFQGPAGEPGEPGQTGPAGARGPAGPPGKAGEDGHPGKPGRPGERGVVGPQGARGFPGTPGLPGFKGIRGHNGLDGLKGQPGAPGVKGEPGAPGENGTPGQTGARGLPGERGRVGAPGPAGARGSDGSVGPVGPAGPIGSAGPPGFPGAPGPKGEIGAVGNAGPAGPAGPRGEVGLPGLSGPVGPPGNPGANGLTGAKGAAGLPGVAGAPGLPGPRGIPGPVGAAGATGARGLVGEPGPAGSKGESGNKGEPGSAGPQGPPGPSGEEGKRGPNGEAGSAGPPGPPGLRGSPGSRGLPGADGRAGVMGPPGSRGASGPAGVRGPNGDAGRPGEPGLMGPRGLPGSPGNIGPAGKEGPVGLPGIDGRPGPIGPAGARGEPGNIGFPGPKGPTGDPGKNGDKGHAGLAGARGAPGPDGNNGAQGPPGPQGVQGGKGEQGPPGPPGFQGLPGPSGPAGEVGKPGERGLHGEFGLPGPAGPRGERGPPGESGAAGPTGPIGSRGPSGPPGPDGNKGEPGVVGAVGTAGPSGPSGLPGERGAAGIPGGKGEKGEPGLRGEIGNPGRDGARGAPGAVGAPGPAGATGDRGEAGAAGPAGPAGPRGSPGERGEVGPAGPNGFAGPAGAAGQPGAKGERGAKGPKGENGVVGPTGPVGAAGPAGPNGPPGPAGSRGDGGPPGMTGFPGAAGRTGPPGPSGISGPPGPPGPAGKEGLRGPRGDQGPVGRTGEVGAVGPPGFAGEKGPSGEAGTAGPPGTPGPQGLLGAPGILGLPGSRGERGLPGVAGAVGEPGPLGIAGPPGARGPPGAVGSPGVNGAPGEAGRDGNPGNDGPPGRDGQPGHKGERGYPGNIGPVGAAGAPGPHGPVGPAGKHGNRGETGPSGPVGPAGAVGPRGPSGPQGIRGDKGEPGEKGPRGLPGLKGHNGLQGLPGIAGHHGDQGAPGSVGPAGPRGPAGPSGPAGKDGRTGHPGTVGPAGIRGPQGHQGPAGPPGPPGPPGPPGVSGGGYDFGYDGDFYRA

[2] = target: T2, rat collagen, acid soluble, type I, rat tail (Upstate 08-115) (rat, UniProt P02454 152-1207; P02466 86-1125); test: dried collagen assay
T2 construct: tissue extract, gelled and dried in wells; also called dried rat collagen
T2 sequence (P02454 152-1207, chain 1 of 2): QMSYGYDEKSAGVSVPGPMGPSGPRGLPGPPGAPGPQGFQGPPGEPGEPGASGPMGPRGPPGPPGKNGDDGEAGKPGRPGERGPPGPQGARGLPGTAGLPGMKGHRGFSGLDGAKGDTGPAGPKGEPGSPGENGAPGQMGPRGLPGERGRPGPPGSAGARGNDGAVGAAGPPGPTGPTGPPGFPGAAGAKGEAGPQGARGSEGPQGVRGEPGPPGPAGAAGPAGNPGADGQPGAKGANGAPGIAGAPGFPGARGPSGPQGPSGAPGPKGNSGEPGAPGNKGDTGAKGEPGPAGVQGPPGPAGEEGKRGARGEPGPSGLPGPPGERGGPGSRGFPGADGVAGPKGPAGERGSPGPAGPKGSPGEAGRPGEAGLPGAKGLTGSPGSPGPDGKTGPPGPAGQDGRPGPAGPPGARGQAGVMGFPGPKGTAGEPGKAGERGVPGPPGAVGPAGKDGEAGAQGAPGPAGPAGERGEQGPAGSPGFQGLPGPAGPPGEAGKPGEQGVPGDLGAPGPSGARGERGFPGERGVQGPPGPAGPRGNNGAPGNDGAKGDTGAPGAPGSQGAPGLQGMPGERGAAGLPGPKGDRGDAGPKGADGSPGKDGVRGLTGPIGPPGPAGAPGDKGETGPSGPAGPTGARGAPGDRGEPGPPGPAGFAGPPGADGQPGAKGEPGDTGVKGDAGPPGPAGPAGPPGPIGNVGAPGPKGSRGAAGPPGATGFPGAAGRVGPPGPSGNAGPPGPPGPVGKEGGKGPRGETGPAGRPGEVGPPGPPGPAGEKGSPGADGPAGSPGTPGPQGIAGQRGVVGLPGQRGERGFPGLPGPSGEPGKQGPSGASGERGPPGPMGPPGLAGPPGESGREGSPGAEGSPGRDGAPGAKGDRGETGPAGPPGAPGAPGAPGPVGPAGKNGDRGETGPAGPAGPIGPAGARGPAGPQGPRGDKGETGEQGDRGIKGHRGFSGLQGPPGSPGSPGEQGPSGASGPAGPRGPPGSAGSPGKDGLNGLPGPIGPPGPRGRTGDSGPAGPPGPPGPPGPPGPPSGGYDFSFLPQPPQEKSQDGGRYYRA
T2 sequence (P02466 86-1125, chain 2 of 2): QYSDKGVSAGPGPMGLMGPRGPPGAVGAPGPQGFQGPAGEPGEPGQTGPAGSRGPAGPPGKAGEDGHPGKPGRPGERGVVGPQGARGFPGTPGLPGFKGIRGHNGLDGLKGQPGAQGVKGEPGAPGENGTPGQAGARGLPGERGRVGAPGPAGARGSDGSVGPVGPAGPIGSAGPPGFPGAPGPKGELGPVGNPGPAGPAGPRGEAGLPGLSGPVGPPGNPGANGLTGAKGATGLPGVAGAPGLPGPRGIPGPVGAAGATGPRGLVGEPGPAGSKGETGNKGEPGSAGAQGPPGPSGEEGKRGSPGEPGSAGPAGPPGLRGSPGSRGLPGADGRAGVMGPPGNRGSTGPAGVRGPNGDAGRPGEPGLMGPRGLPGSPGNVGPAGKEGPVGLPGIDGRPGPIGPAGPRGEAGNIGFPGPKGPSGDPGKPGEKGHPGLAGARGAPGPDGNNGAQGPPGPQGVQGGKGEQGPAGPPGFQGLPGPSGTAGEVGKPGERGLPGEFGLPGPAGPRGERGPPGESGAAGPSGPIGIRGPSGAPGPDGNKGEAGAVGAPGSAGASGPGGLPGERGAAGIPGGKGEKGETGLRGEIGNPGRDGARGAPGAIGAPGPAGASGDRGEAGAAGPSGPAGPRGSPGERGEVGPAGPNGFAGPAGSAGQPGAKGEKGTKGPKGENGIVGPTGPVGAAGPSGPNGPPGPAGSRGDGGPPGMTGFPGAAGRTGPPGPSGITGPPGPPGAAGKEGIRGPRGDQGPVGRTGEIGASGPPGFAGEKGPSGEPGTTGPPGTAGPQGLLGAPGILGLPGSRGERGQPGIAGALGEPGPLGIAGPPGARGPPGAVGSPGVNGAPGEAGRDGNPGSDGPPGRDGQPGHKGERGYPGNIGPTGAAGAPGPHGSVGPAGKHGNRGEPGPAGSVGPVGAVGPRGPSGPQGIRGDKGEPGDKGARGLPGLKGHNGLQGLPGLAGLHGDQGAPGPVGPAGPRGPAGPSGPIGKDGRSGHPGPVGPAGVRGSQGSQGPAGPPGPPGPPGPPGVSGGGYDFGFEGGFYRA

| % bound [1] [%] | % bound [2] [%] | Binder |
| --- | --- | --- |
| 68 | 58 | {Gd^T″}-GQWNCTTLFPHHYCLYG (disulfide 5-14 (inferred)) [Compound ID 922] |
| 36 | 24 | {Gd^T″}-GQWHCTTRFPHH[hTyr]CLYG (disulfide 5-14 (inferred)) [Compound ID 933] |
| 28 | 10 | {Gd^T″}-GQWHCTTLFPNHYCLYG (disulfide 5-14 (inferred)) [Compound ID 923] |
| 59 | 39 | {Gd^T″}-GQWHCTTRFPHH[Phe(3-OMe)]CLYG (disulfide 5-14 (inferred)) [Compound ID 935] |
| 39 | 15 | {Gd^T″}-GQWK(Gd^T″)CTTRFPHHYCLYG (disulfide 5-14 (inferred)) [Compound ID 956] |
| 25 | 17 | {Gd^T″}-GK([Gly-Gd^T″])WHCTTYFPHWYCLYG (disulfide 5-14 (inferred)) [Compound ID 948] |
| 87 | 86 | {Gd^T″}-GK([Gly-Gd^T″])WHCYTK(Gd^T″)FPHHYCVYY (disulfide 5-14 (inferred); not fully specified (C-terminus)) [Compound ID 979] |
| 64 | 63 | {Gd^T″}-GQWHCTTLFPHHYCIYG (disulfide 5-14 (inferred)) [Compound ID 927] |
| 91 | 84 | {Gd^T″}-GK([Gly-Gd^T″])WHCYTYFPHHYCVYG (disulfide 5-14 (inferred)) [Compound ID 944] |
| 31 | 42 | {Gd^T″}-GK([Gly-Gd^T″])WHCTTLFPHHYCLYG (disulfide 5-14 (inferred)) [Compound ID 930] |
| 20 | 10 | {Gd^T″}-GK([Gly-Gd^T″])WHCTTYFPTHYCLYG (disulfide 5-14 (inferred)) [Compound ID 962] |
| 24 | 1 | {Gd^T″}-GQWHCTTLFPHNYCLYG (disulfide 5-14 (inferred)) [Compound ID 924] |
| 64 | 66 | {Gd^T″}-GK([Gly-Gd^T″])WHCYTK(Gd^T″)FPHHYCVYG (disulfide 5-14 (inferred); not fully specified (C-terminus)) [Compound ID 978] |
| 27 | 34 | {Gd^T″}-GQWHCTT[Phe(4-F)]FPHHYCLYG (disulfide 5-14 (inferred)) [Compound ID 929] |
| 64 | 57 | {Gd^T″}-GK([Gly-Gd^T″])WHCTTYFPHYYCLYG (disulfide 5-14 (inferred)) [Compound ID 947] |
| 72 | 79 | {Gd^T″}-GK([Gly-Gd^T″])WHCTTYFPHHYCLYY (disulfide 5-14 (inferred)) [Compound ID 949] |
| 42 | 39 | {Gd^T″}-GQWHCK(Gd^T″)TRFPHHYCLYG (disulfide 5-14 (inferred)) [Compound ID 957] |
| 53 | 54 | {Gd^T″}-GK([Gly-Gd^T″])WHCTTYFPHHYCL[Phe(4-NH2)]G (disulfide 5-14 (inferred); not fully specified (C-terminus)) [Compound ID 970] |
| 26 | 11 | {Gd^T″}-GK([Gly-Gd^T″])WHCTTYFPHHVCLYG (disulfide 5-14 (inferred)) [Compound ID 965] |
| 3 | 0 | {Gd^T″}-GK([Gly-Gd^T″])WHCTTYFPHH[Phe(4-NH2)]CLYG (disulfide 5-14 (inferred); not fully specified (C-terminus)) [Compound ID 972] |

| % bound [1] [%] | % bound [2] [%] | Binder |
| --- | --- | --- |
| 83 | 82 | {Gd^T″}-GK([Gly-Gd^T″])WHCYTYFPHHYCVYY (disulfide 5-14 (inferred)) [Compound ID 945] |
| 73 | 80 | {Gd^T″}-GQWHCTTLFPHHYCVYG (disulfide 5-14 (inferred)) [Compound ID 928] |
| 59 | 62 | {Gd^T″}-GK([Gly-Gd^T″])WYCTTYFPHHYCLYG (disulfide 5-14 (inferred); not fully specified (C-terminus)) [Compound ID 990] |
| 45 | 33 | {Gd^T″}-GQWHCTTRFPK(Gd^T″)HYCLYG (disulfide 5-14 (inferred)) [Compound ID 958] |
| 58 | 68 | {Gd^T″}-GQWHCYTLFPHHYCLYG (disulfide 5-14 (inferred)) [Compound ID 959] |
| 50 | 50 | {Gd^T″}-GK([Gly-Gd^T″])WHCTTYFPHH[Dmt]CLYG (disulfide 5-14 (inferred)) [Compound ID 953] |
| 52 | 72 | {Gd^T″}-GK([Gly-Gd^T″])WHCTTYFPHH[Tyr(3-Cl)]CLYG (disulfide 5-14 (inferred)) [Compound ID 952] |
| 85 | 80 | {Gd^T″}-GK([Gly-Gd^T″])WHCTTK(Gd^T″)FPHHYCLYY (disulfide 5-14 (inferred); not fully specified (C-terminus)) [Compound ID 980] |
| 21 | 14 | {Gd^T″}-GQWHCTTRFPHH[hTyr(Me)]CLYG (disulfide 5-14 (inferred)) [Compound ID 934] |
| 78 | 67 | {Gd^T″}-GK([Gly-Gd^T″])WHCTTYFPHHYCVYG (disulfide 5-14 (inferred)) [Compound ID 942] |
| 71 | 68 | {Gd^T″}-GK([Gly-Gd^T″])WHCTTYFPYHYCLYG (disulfide 5-14 (inferred)) [Compound ID 946] |
| 82 | 91 | {Gd^T″}-GK([Gly-Gd^T″])WHCYTYFPYHYCVYG (disulfide 5-14 (inferred)) [Compound ID 963] |
| 31 | 22 | {Gd^T″}-GQWHCTTRFPHHYCLYG (disulfide 5-14 (inferred); not fully specified (C-terminus)) [Compound ID 954] |
| 81 | 87 | Cbz-GQWHCTTK(Gd^T″)FPHHYCLYG (disulfide 5-14 (inferred)) [Compound ID 926] |
| 85 | 92 | {Gd^T″}-GK([Gly-Gd^T″])WHC[Tyr(3-I)]TYFPHHYCLYG (disulfide 5-14 (inferred); not fully specified (C-terminus)) [Compound ID 973] |
| 55 | 72 | {Gd^T″}-GK([Gly-Gd^T″])WHCYTYFPHHYCLYG (disulfide 5-14 (inferred)) [Compound ID 943] |
| 70 | 83 | {Gd^T″}-GQWHCTTRFPHHYCFYG (disulfide 5-14 (inferred)) [Compound ID 931] |
| 21 | 25 | {Gd^T″}-GK([Gly-Gd^T″])WHCTTYFPHHYCL[Phe(4-NH2)](Gd^T″)G (disulfide 5-14 (inferred); not fully specified (C-terminus)) [Compound ID 971] |
| 16 | 13 | {Gd^T″}-GQWHCTTRF[NMeA]HHYCLYG (disulfide 5-14 (inferred)) [Compound ID 938] |
| 88 | 86 | {Gd^T″}-GK([Gly-Gd^T″])WHCYTYFPYHYCLYG (disulfide 5-14 (inferred)) [Compound ID 964] |
